Test results as given in patent US20250026842A1.
Blank lines part the entries; values can stand above or below the binder they belong to.

Biological target: pre-anti-drug antibodies (pre-ADAs) in individual serum samples taken from healthy humans
Experiment: ELISA, coated sdAb, 40 healthy donor sera (1:5), anti-human lambda chain-HRP, OD415

- percent of serum samples with detectable sdAb-reactive pre-ADAs: 57.5%
B1: P2-1 (protein)
VH: HHHHHHGGGGSEVQLLESGGGLVQPGGSLRLSCAASGFTFAHETMVWVRQAPGKGLEWVSHIPPDGQDPFYADSVKGRFTISRDNSKNTLYLQMNSLRAEDTAVYHCALLPKRGPWFDYWGQGTLVTVSS

- percent of serum samples with detectable sdAb-reactive pre-ADAs: 12.5%
B2: P2-2 (protein)
VH: HHHHHHGGGGSEVQLLESGGGLVQPGGSLRLSCAASGFTFAHETMVWVRQAPGKGLEWVSHIPPDGQDPFYADSVKGRFTISRDNSKNTLYLQMNSLRAEDTAVYHCALLPKRGPWFDYWGQGTLVTVSSA
